In patent publication US20190359983, “TARGETED OLIGONUCLEOTIDES” (CARIS SCIENCE, INC., published 2019):

B1: 83S-B11 full (ssDNA)
DNA: CTAGCATGACTGCAGTACGTAACCCAATTCACATACACTCTCACCCCCACTAAACACTGTCTCTTATACACATCTGACGCTGCCGACGA
B2: 83S-B1 full (ssDNA)
DNA: CTAGCATGACTGCAGTACGTACTATAGAACAATCCACCGCTTTAAATCAACTATCTTACTGTCTCTTATACACATCTGACGCTGCCGACGA

Experiments:
[1] = molecular target: T1, Complement C1q (C1qA/C1qB/C1qC) (UniProt P02745;P02746;P02747 P02745:23-245,P02746:28-253,P02747:29-245); assay: ELONA; estimated; C1q fixed at 0.625 nM; conditions: chain copies: 6; label: radiolabel (filter); biotin (pulldown, ELONA)
Experimental: (§1) To further investigate the interaction of aptamer B1 and B11 with C1q, we performed a filter retention assay. Radioactively labelled B1 and B11 were incubated with increasing concentrations of purified C1q and subsequently passed through a nitrocellulose membrane. The amount of oligonucleotides retained on membrane-immobilized C1q was then quantified by autoradiography. […] Similar results were obtained with B11 and B11rc in an Enzyme-Linked Oligonucleotide Assay (ELONA; see U.S. Pat. No. 5,789,163, which patent is incorporated herein in its entirety). […] As a control, the reverse complement of B11, B11RC, was used (squares).

[2] = molecular target: T1, Complement C1q (C1qA/C1qB/C1qC); assay: FP filter; nitrocellulose filter retention; concentration dependent binding; conditions: chain copies: 6; label: radiolabel (filter); biotin (pulldown)
Experimental: as §1

T1 sequence (P02745 23-245, chain 1 of 3): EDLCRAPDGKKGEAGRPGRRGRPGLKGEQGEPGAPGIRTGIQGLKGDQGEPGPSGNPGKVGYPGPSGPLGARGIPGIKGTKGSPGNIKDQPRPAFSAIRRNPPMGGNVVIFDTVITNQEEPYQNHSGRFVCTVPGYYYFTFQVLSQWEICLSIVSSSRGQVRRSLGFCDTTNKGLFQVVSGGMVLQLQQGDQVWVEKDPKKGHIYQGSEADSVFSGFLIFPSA
T1 sequence (P02746 28-253, chain 2 of 3): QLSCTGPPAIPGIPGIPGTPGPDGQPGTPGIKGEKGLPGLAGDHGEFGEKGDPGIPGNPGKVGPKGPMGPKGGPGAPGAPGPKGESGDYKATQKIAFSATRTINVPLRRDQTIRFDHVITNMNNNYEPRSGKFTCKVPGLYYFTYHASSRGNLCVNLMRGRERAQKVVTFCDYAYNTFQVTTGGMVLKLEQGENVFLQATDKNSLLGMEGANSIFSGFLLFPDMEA
T1 sequence (P02747 29-245, chain 3 of 3): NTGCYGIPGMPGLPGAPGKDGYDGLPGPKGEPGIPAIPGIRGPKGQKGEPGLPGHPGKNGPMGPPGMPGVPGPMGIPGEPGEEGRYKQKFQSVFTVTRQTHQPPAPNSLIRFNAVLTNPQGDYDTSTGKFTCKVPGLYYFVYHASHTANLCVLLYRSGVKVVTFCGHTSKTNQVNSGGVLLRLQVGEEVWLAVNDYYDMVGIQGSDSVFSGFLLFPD

Binder	Kd [1] [nM]	binding result [2]
B1	~40	–
B2	–	binds
